Laboratory results from patent publication US20020177180A1, “pH-indicator based assay for selective enzymes” (ThermoGen, Inc., priority 1998, published 2002).

B1: Proteinase K: commercial protease (protein, UniProt P06873 106-384, looked up)
Proteinase K: AAQTNAPWGLARISSTSPGTSTYYYDESAGQGSCVYVIDTGIEASHPEFEGRAQMVKTYYYSSRDGNGHGTHCAGTVGSRTYGVAKKTQLFGVKVLDDNGSGQYSTIIAGMDFVASDKNNRNCPKGVVASLSLGGGYSSSVNSAAARLQSSGVMVAVAAGNNNADARNYSPASEPSVCTVGASDRYDRRSSFSNYGSVLDIFGPGTSILSTWIGGSTRSISGTSMATPHVAGLAAYLMTLGKTTAASACRYIADTANKGDLSNIPFGTVNLLAYNNYQA
B2: Porcine pancreas: commercial lipase from porcine pancreas (protein, UniProt P00591 1-450, looked up)
Pancreatic triacylglycerol …: SEVCFPRLGCFSDDAPWAGIVQRPLKILPWSPKDVDTRFLLYTNQNQNNYQELVADPSTITNSNFRMDRKTRFIIHGFIDKGEEDWLSNICKNLFKVESVNCICVDWKGGSRTGYTQASQNIRIVGAEVAYFVEVLKSSLGYSPSNVHVIGHSLGSHAAGEAGRRTNGTIERITGLDPAEPCFQGTPELVRLDPSDAKFVDVIHTDAAPIIPNLGFGMSQTVGHLDFFPNGGKQMPGCQKNILSQIVDIDGIWEGTRDFVACNHLRSYKYYADSILNPDGFAGFPCDSYNVFTANKCFPCPSEGCPQMGHYADRFPGKTNGVSQVFYLNTGDASNFARWRYKVSVTLSGKKVTGHILVSLFGNEGNSRQYEIYKGTLQPDNTHSDEFDSDVEVGDLQKVKFIWYNNNVINPTLPRVGASKITVERNDGKVYDFCSQETVREEVLLTLNPC
B3: Themsolysin, Type X: commercial protease (protein, UniProt P00800 233-548, looked up)
Thermolysin: ITGTSTVGVGRGVLGDQKNINTTYSTYYYLQDNTRGNGIFTYDAKYRTTLPGSLWADADNQFFASYDAPAVDAHYYAGVTYDYYKNVHNRLSYDGNNAAIRSSVHYSQGYNNAFWNGSQMVYGDGDGQTFIPLSGGIDVVAHELTHAVTDYTAGLIYQNESGAINEAISDIFGTLVEFYANKNPDWEIGEDVYTPGISGDSLRSMSDPAKYGDPDHYSKRYTGTQDNGGVHINSGIINKAAYLISQGGTHYGVSVVGIGRDKLGKIFYRALTQYLTPTSNFSQLRAAAVQSATDLYGSTSQEVASVKQAFDAVGVK
B4: Subtilisin Carlsberg: commercial protease (protein, UniProt P00780 106-379, looked up)
Subtilisin Carlsberg: AQTVPYGIPLIKADKVQAQGFKGANVKVAVLDTGIQASHPDLNVVGGASFVAGEAYNTDGNGHGTHVAGTVAALDNTTGVLGVAPSVSLYAVKVLNSSGSGSYSGIVSGIEWATTNGMDVINMSLGGASGSTAMKQAVDNAYAKGVVVVAAAGNSGSSGNTNTIGYPAKYDSVIAVGAVDSNSNRASFSSVGAELEVMAPGAGVYSTYPTNTYATLNGTSMASPHVAGAAALILSKHPNLSASQVRNRLSSTATYLGSSFYYGKGLINVEAAAQ

What was measured:
Format in all cases: biochemical
[1] = pH-indicator (4-nitrophenol/BES) microplate screening of commercial hydrolases, initial rates of hydrolysis; settings: for Activity (R): (R)-solketal butyrate 1.0 mM; for Activity (R) / Activity (S) / Activity (±): pH 7.2, 7.1% acetonitrile, 25° C.; for Activity (S): (S)-solketal butyrate 1.0 mM; for Activity (±): (±)-solketal butyrate 1.0 mM, specific activity; for Estimated E: without Triton X-100
Protocol: The hydrolases were dissolved in BES buffer (5.0 mM, pH 7.2) at the concentrations listed in Table 1 (0.5-40 mg solid/mL solution). […] CaCl2 (2 mM) was added to the protease solutions since some proteases require calcium ions to maintain their structure. For hydrolase samples with low protein content, saturated solutions (up to 40 mg solid/ml) were utilized for hydrolase samples and with high protein content were utlized, lower concentrations (typically, 1 mg solid/ml) were utilized. Each solution was centrifuged to remove insoluble material (5 min, 2,000 rpm) and titrated to a final pH of 7.2. The protein concentrations were determined using a dye-binding assay from Bio-Rad (Mississauga, ON) with bovine serum albumin (BSA) as the standard. Solutions were stored in a 96-well assay block ‘mother plate’ equipped with aluminum sealing tape (2 mL maximum volume in each well, Corning Costar, Acton, Mass.) at −20° C.
Hydrolase solutions (5 μL/well) were transferred from the mother plate to a 96-well microtiter plate using an 8-channel pipette. Assay solution (100 μL/well) was quickly added to each well using a 1,200 μL 8-channel pipette. The final concentrations in each well were 1.0 mM substrate, 4.65 mM BES, 0.434 mM 4-nitrophenol, 7.1% acetonitrile. The plate was quickly placed in the microplate reader, shaken for 10 s to ensure complete mixing and the decrease in absorbance at 404 nm was monitored at 25° C. as often as permitted by the microplate software, typically every 11 seconds. […] Data were collected for one hour to ensure slow reactions and reactions with a lag time were detected. Each hydrolysis was carried out in quadruplicate and was averaged. […] For this reason. the first 10 s of data was typically deleted from the calculation of the initial rate. Activities were calculated from slopes in the linear portion of the curve usually over the first two hundred seconds. […] To calculate specific activity (μmol/min/mg protein), the total amount of protein in each well was taken into account.
The assay was used to screen for enantioselective hydrolases in 96-well microplates. Using pure enantiomers, the initial rates of hydrolysis of each enantiomer of solketal butyrate was measured separately. […] Note that the ratio of separately measured initial rates of hydrolysis of the enantiomers is not the true enantioselectivity, so this screening provides only an estimated enantioselectivity. The true enantioselectivity is the ratio of the specificity constants (kcat/KM) for each enantiomer. By measuring initial rates of the enantiomers separately, competitive binding between the two enantiomers was eliminated. At saturating substrate conditions, the relative initial rates equal the relative kcat values; at partially saturating conditions, the initial rates also depend on the KM values. Thus, the ratio of separately measured initial rates ignores some or all of the effect of KM on enantioselectivity. In spite of this inaccuracy, the relative initial rate provides an estimated enantioselectivity.

[2] = Quick E of chromogenic ester with resorufin tetradecanoate reference; settings: substrate 1
Protocol: To reintroduce competition, resorufin tetradecanoate was added as a reference compound, FIG. 7. The initial rates of hydrolysis of (S)-1 were monitored at 404 nm and the reference compound at 572 nm in the same solution. After taking into account the initial concentrations of both substrates, the ratio of these rates yielded the selectivity of the hydrolase for (S)-1 over the reference compound, Eq 8.
A second experiment using (R)-1 and the reference compound yielded the selectivity of (R)-1 over the reference compound. The ratio of these two selectivities yields the enantiomeric ratio, Eq. 9.
Substrate solutions were the same as for separately measured initial rate measurements, but a solution of resorufin tetradecanaote 6 (0.5 mL of a 1.59 mM solution in acetonitrile) was added slowly to the vortexing solutions of pure enantiomers. It was necessary to use a 2-fold increase in the concentration of Triton X-100 to solubilize resorufin tetradecanoate. The emulsions remained clear for at least 2 hours. To measure the initial rates of hydrolysis, lipase solutions from Table 4 (100 μL) was added to the substrate emulsion (900 μL) in a cuvette at 25° C. and the linear increase in absorbances at 404 nm and 574 nm were monitored for 15 s. Rates are calculated in μmol/min/mg protein after taking into account the amount of protein in each cuvette. […] No spontaneous chemical hydrolysis was detected at 404 nm or 574 nm.

[3] = Separately measured initial rates of chromogenic esters (404 nm), estimated E; settings: substrate 1
Protocol: The initial rates of hydrolysis of 4-nitrophenyl esters of pure enantiomers were determined to quickly estimate the enantioselectivity of several lipases towards three common chiral carboxylic acids: 2-phenylpropanoic acid, p-nitro phenyl ester (or, 4-nitrophenyl 2-phenylpropanoate), 1; 2-(4-isobutylphenyl)propanoic acid (commercially available as Ibuprofen), 2; and phenylalanine, 3, FIG. 5. The rates of hydrolysis of 4-nitrophenyl esters were conveniently determined spectrophotometrically by monitoring the rate of release of 4-nitrophenoxide anion at 404 nm, FIG. 6. The ratio of separately measured initial rates of hydrolysis estimated the enantioselectivity. The quick E of phenylalanine, 3, was not measured because of its instability in aqueous solution.
Separately measured initial rates of chromogenic esters. 4-nitrophenyl esters of 2- phenylpropanoic acid, 1, and 2-(4-isobutylphenyl)propanoic acid, 2, were emulsified in aqueous solutions according to Vorderwuibecke. A solution of (R) or (S)-4-nitrophenyl-esster (500 μL of a 7.8 mM solution in acteonitrile) was added dropwise to Tris buffer (9000 μL, 50 mM, pH 7.5) containing 0.45 w/v % Triton X-100 (Pierce Surfact-Amps) and vortexed until clear. This emulsion remained clear for at least 3 hours. To measure the initial rates of hydrolysis, lipase solutions from Table 3 (100 μL) were added to the substrate emulsion (900 μL) in a cuvette at 25° C. and the linear increase in absorbance at 404 nm was monitored for 15 s. The final concentrations in the cuvettes were 0.369 mM substrate, 0.39% Triton X-100, 45 mM Tris buffer, 4.76% acetonitrile. No spontaneous chemical hydrolysis was detected. Solutions of 4-nitrophenyl esters of phenylalanine, 3, in acetonitrile (5 IL of a 50 mM solution in acetonitrile) were added to HEPES buffer (1000 μL, 10 mM , pH 7.5). To measure the rates of hydrolysis, 5 μL of ANL solution was added and the change in absorbance monitored as above.

[4] = Endpoint method: small-scale enzyme-catalyzed hydrolysis, ee by HPLC, true E; settings: substrate 1
[5] = pH-indicator screening under interfacial activation conditions (Triton X-100); settings: 2.8 mM Triton X-100 in the wells
Protocol: The procedure was the same as above except that the BES buffer (5 mM, pH 7.2) contained Triton-X 100 (8.45 mM). Final concentration of Triton X-100 in the wells was 2.8 mM.
The reaction conditions in the assay were altered in an attempt to increase the estimated enantioselectivity toward solketal butyrate. For example, the activity of hydrolases, especially lipases, often increases in the presence of an interface. It was reasoned that this interfacial activation may also change the enantioselectivity. The hydrolase library was screened with Triton X-100 (a non-ionic detergent) added to create micelles. The reaction rates increased for eight hydrolases (three lipases and five esterases), decreased for thirty-two hydrolases, and stayed constant for twelve hydrolases. Unfortunately, the estimated enantioselectivities remained unchanged or decreased slightly for the best hydrolases: AOP (decrease from 4.9 to 4.2), ROL (decrease from 11.3 to 9.6), HLE (decrease from 12.2 to 7.6), BSP (decrease from 7.3 to 5.4). […] For example, subtilisin Carlsberg increased from 2.6 to 2.8, esterase from Bacillus stearothermophilus increased from 1.7 to 2.4 and Aspergillus oryzae lipase decreased from 4.95 to 1.8.

[6] = ratio of separately measured initial rates of the enantiomers
[7] = 0.37 mM substrate, 0.38% Triton X-100, 45.2 mM Tris Buffer, 4.76% acetonitrile

Molecule	Activity (R) [1]	Activity (S) [1]	Activity (±) [1]	Estimated E [1, 6]	(R)-enantiomer + ref, rate 404 nm ([2]; 0.351 mM (R)-ester + 0.071 mM resorufin tetradecanoate, Tris pH 8, 25°)	(S)-enantiomer + ref, rate 404 nm ([2]; 0.351 mM (S)-ester + 0.071 mM resorufin tetradecanoate, Tris pH 8, 25°)	Quick E ([2]; error = standard deviation for 3 measurements)	(R)-enantiomer + ref, rate 574 nm ([2]; reference hydrolysis in presence of (R)-ester)	(S)-enantiomer + ref, rate 574 nm ([2]; reference hydrolysis in presence of (S)-ester)	Initial Rate (R) [3, 7]	Initial Rate (S) [3, 7]	Estimated E ([3]; ratio of separately measured initial rates)	C [4]	eep [4]	Endpoint E ([4]; Tris buffer pH 8.0, room temperature)	Estimated E [1]	Estimated E ([1]; ratio of separately measured initial rates of the enantiomers, listed as subtilisin Carlsberg)	estimated enantioselectivity with Triton X-100 [5]
B1	3.08 μmol/min/mg protein	2.29 μmol/min/mg protein	2.14 μmol/min/mg protein	1.24														
B2					0.000659 μmol/min/mg protein	0.00105 μmol/min/mg protein	1.4 ± 0.2	0.00437 μmol/min/mg protein	0.000495 μmol/min/mg protein	0.00403 μmol/min/mg protein	0.0059 μmol/min/mg protein	1.4 ± 0.1	4.0	2.0	1.1 ± 0.1			
B3	0.255 μmol/min/mg protein	0.738 μmol/min/mg protein	0.095 μmol/min/mg protein	2.89												5		
B4	0.213 μmol/min/mg protein	0.082 μmol/min/mg protein	0.083 μmol/min/mg protein	2.60													2.6	2.8
